Experiments:
[1] = target: 狂犬病毒G蛋白 (rabies virus G protein, RVG) (rabies virus (strain not stated))
[2] = target: 狂犬疫苗 (rabies vaccine used as ELISA coating antigen); test: ELISA, rabies vaccine coated on plate, HRP goat anti-human IgG
狂犬病毒(CVS株) = test: cell-based or functional assay

B1: 全人源的单克隆的抗狂犬病毒中和抗体TRN006 (antibody, V domains shown)
VH: QVQLQESGPGLVKPSETLSLTCTVSGGSISSTTSYWGWIRQPPGKGLEWIGSIYYSGSTYYNPSLKSRVTISVDTSKNQFSLKLRSVTAADTAVYFCARHSVTAAYFNYWGQGTLVSVSS
VL: DIQMTQSPSSVSASVGDRVTITCRASEGISSWLAWYQQKPGRAPKVLIHGASSLQSGVPSRFSGSGSGADFTLSISSLQPEDFATYYCQQANSFPYTFGQGTKLEIKR
- fold of MFI over negative control antibody [1]: 300 fold
- fold of MFI over standard serum [1]: 17 fold
- antibody concentration at which binding is still seen [2]: 0.0024 µg/mL
- dilution fold at which binding is still seen [2]: 50000 fold
- 保护效价 (RFFIT, Reed & Muench法) (狂犬病毒(CVS株)): 3040 IU/ml

From patent publication CN103910796A
